Results on eight molecules are retold here after patent US20200102388A1 (NEW YORK UNIVERSITY, published 2020).

Numbering of substitutions follows the chain as printed. Like-named read-outs stand apart in the source and are kept apart here.

For experiment [1], the target named is T1, γδ1 TCR containing the delta1C chain (human, biotinylated in vitro using recombinant BirA (AviTag)).
T1 construct: also called biotinylated TCR sample; gamma/delta1 TCR; not shown: Fc portion of mouse IgG; AviTag; His6 tag; TCR gamma chain fused to mouse IgG Fc
T1 sequence (main, as listed by the source): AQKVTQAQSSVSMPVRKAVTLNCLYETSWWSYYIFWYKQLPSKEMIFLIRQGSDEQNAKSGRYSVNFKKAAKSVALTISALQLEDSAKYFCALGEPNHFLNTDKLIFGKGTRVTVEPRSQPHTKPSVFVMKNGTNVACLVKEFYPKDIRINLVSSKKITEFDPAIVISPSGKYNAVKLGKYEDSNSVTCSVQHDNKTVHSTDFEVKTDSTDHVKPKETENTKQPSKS
Nature of the experiment: SPR (Pioneer, OneStep): biotinylated TCR immobilised on a neutravidin-loaded Avicap chip, IgG flowed; apparent KD.

Experiment [2] concerns the target T2, heterodimer containing Delta1C and gamma 3, Fc-fusion protein (human).
T2 construct: the assay paragraph says only gamma 3; also called Delta1C/Gamma3; not shown: Fc portion of mouse IgG; AviTag; His6 tag
In words: ELISA on gamma/delta TCR-Fc heterodimers immobilised on a microtiter plate, probed with the clone named over the panel (control panel: No Phage).

In experiment [3] the target is T3, heterodimer containing Delta1C and gamma 8, Fc-fusion protein (human).
T3 construct: the assay paragraph says only gamma 8; also called Delta1C/Gamma8; not shown: Fc portion of mouse IgG; AviTag; His6 tag
T3 sequence (V domain, as listed by the source, chain 1 of 2): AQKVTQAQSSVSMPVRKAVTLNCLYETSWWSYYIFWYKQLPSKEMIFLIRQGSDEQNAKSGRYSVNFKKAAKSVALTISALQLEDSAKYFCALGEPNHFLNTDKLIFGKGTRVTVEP
T3 sequence (V domain, as listed by the source, chain 2 of 2): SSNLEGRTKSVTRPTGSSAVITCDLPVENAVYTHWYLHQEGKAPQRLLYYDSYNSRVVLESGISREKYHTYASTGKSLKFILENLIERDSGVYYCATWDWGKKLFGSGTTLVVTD
The experiment is described as above.

The target of experiment [4] is T2, heterodimer containing Delta1C and …. The description is as above. This is another data set of the same source.
Experiment [5] addresses T3, heterodimer containing Delta1C and …. The description is as above. This is another data set of the same source.
Experiment [6] deals with T1, γδ1 TCR containing the delta1C chain. Nature of the experiment: SPR (Pioneer, OneStep): biotinylated TCR immobilised on a neutravidin-loaded Avicap chip, IgG flowed; apparent KD. The source holds these as a separate data set.
Description: (§1) The affinity of the antibodies was assessed using surface plasmon resonance (SPR). A biotinylated TCR sample was immobilized on an Avicap chip (Pall ForteBio) that had been preloaded with neutravidin (ThermoFisher). IgG samples were flowed using the OneStep method on a Pioneer SPR instrument (Pall ForteBio).
Experiment [7] has as its target T2, heterodimer containing Delta1C and …. Nature of the experiment: ELISA on gamma/delta TCR-Fc heterodimers immobilised on a microtiter plate, probed with the clone named over the panel (control panel: No Phage). This is another data set of the same source.
The target of experiment [8] is T3, heterodimer containing Delta1C and …. The description is as above. This is another data set of the same source.
Experiment [9] concerns the target T1, γδ1 TCR containing the delta1C chain. In words: SPR (Pioneer, OneStep): biotinylated TCR immobilised on a neutravidin-loaded Avicap chip, IgG flowed; apparent KD. This is another data set of the same source.
Description: as §1
The target is the same in experiment [10]. The experiment is described as above. This is another data set of the same source.
Description: as §1
The target in experiment [11] is T2, heterodimer containing Delta1C and …. Nature of the experiment: ELISA on gamma/delta TCR-Fc heterodimers immobilised on a microtiter plate, probed with the clone named over the panel (control panel: No Phage). This is another data set of the same source. A general note: An ELISA detects its analyte on a solid surface through an enzyme-linked reagent.
The target of experiment [12] is T3, heterodimer containing Delta1C and …. The description is as above. The source holds these as a separate data set.
For experiment [13], the target named is T2, heterodimer containing Delta1C and …. Described as above. This is another data set of the same source.
For experiment [14], the target named is T3, heterodimer containing Delta1C and …. The experiment is described as above. This is another data set of the same source.
For experiment [15], the target named is T1, γδ1 TCR containing the delta1C chain. In words: SPR (Pioneer, OneStep): biotinylated TCR immobilised on a neutravidin-loaded Avicap chip, IgG flowed; apparent KD. The source holds these as a separate data set.
Description: as §1
The target in experiment [16] is T2, heterodimer containing Delta1C and …. In words: ELISA on gamma/delta TCR-Fc heterodimers immobilised on a microtiter plate, probed with the clone named over the panel (control panel: No Phage). This is another data set of the same source.
The target in experiment [17] is T3, heterodimer containing Delta1C and …. The description is as above. This is another data set of the same source.
Experiment [18] concerns the target T1, γδ1 TCR containing the delta1C chain. In words: SPR (Pioneer, OneStep): biotinylated TCR immobilised on a neutravidin-loaded Avicap chip, IgG flowed; apparent KD. The source holds these as a separate data set.
Description: as §1

T2 sequence (V domain, as listed by the source, chain 1 of 2): as the sequence (V domain, as listed by the source, chain 1 of 2) above
T2 sequence (V domain, as listed by the source, chain 2 of 2): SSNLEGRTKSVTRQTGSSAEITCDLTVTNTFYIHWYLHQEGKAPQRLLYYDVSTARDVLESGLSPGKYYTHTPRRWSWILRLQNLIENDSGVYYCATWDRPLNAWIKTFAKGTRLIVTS

B1: Delta 1-3 (antibody, V domains shown)
VH: EVQLVESGGGLVQPGGSLRLSCAASGFTLSSSSIHWVRQAPGKGLEWVASIYSSSGYTSYADSVKGRFTISADTSKNTAYLQMNSLRAEDTAVYYCARGLWSVWYYQFYSSMQGMDYWGQGTLVTVSS
VL: DIQMTQSPSSLSASVGDRVTITCRASQSVSSAVAWYQQKPGKAPKLLIYSASSLYSGVPSRFSGSRSGTDFTLTISSLQPEDFATYYCQQGYEYPLTFGQGTKVEIKR
notes: Tested by SPR as human IgG
For the molecule B1, the Kd in experiment [1] worked out at 50 nM.

B2: Delta 1-8 (antibody, V domains shown)
VH: EVQLVESGGGLVQPGGSLRLSCAASGFTVSSSSIHWVRQAPGKGLEWVASIYSSSGYTYYADSVKGRFTISADTSKNTAYLQMNSLRAEDTAVYYCARPYYWYPYYYWSGGWEYAAFDYWGQGTLVTVSS
VL: B1 VL with G91Y, Y92G, L96I
On to B2, for which the binding result in experiment [2] and in experiment [3] was “binds” in each case.

B3: Delta 1-15 (antibody, V domains shown)
VH: EVQLVESGGGLVQPGGSLRLSCAASGFTFSSSSIHWVRQAPGKGLEWVASISSSSGSTSYADSVKGRFTISADTSKNTAYLQMNSLRAEDTAVYYCARYSWIYDSWWSGWAMDYWGQGTLVTVSS
VL: B1 VL with G91S, Y92S, E93S, Y94S, P95L, L96I
As for B3, the figures for the binding result in experiment [4] and in experiment [5] were “binds” and “no binding”, respectively.

B4: Delta 1-17 (antibody, V domains shown)
VH: EVQLVESGGGLVQPGGSLRLSCAASGFTVSSSSIHWVRQAPGKGLEWVASIYSSSGYTYYADSVKGRFTISADTSKNTAYLQMNSLRAEDTAVYYCARDPGMYYWYYSGSAYEGYGLDYWGQGTLVTVSS
VL: B1 VL with G91S, Y92G, E93D, Y94D, P95L, L96I
notes: also called Delta1-17 IgG
In the case of B4, the Kd in experiment [6] came out at 7 nM. For the same molecule, the binding result in experiment [7] and in experiment [8] was “binds” throughout.

B5: Delta 1-13 (antibody, V domains shown)
VH: EVQLVESGGGLVQPGGSLRLSCAASGFTFSSSSIHWVRQAPGKGLEWVASISSSSGSTSYADSVKGRFTISADTSKNTAYLQMNSLRAEDTAVYYCARTTSYIDEYFGFGWYAMDYWGQGTLVTVSS
VL: B1 VL with G91S, Y92S, E93S, Y94S, P95L, L96I
For B5, in experiment [9], the Kd turned out to be 53 nM.

B6: Delta 1-10 (antibody, V domains shown)
VH: EVQLVESGGGLVQPGGSLRLSCAASGFTFSSSSIHWVRQAPGKGLEWVASISSSSGSTSYADSVKGRFTISADTSKNTAYLQMNSLRAEDTAVYYCARSMVWYWGLNGYEEYAGGMDYWGQGTLVTVSS
VL: B1 VL with G91S, Y92S, E93S, Y94S, P95L, L96I
On to B6, for which the Kd in [10] was 24 nM. The binding result in [11] and in experiment [12] was “no binding” throughout.

B7: Delta 1-1 (antibody, V domains shown)
VH: EVQLVESGGGLVQPGGSLRLSCAASGFTVSSSSIHWVRQAPGKGLEWVASISSYYGYTSYADSVKGRFTISADTSKNTAYLQMNSLRAEDTAVYYCAREEWMSYWYWPRYYYYGMDYWGQGTLVTVSS
VL: DIQMTQSPSSLSASVGDRVTITCRASQSVSSAVAWYQQKPGKAPKLLIYSASSLYSGVPSRFSGSRSGTDFTLTISSLQPEDFATYYCQQAALMSPITFGQGTKVEIKR
notes: Tested by SPR as human IgG made in ExpiCHO cells
Consider B7, for which the binding result in [13] and in [14] was “no binding” throughout. Besides, in [15], the Kd was 10 nM.

B8: Delta 1-6 (antibody, V domains shown)
VH: EVQLVESGGGLVQPGGSLRLSCAASGFTVYSSSIHWVRQAPGKGLEWVASISPYSGSTSYADSVKGRFTISADTSKNTAYLQMNSLRAEDTAVYYCARMWYLSGWWTGDALDYWGQGTLVTVSS
VL: B7 VL with A91G, A92Y, L93Y, M94S, S95A, P96L
Take B8: the binding result in experiment [16] and in experiment [17] was “no binding” in each case. The Kd in experiment [18] came out at 11 nM.
